For test [1], the target named is human-BAFF-Fc (human), Q9Y275. As to the kind of experiment: ELISA (OD450), plate coated with BAFF 1 µg/ml, human BCMA titrated up to 10 µg/mL; EC50 table in the figure. Particulars: remark: other sources report otherwise.
The target in test [2] is human-BAFF-Fc (human), Q9Y275. As to the kind of experiment: ELISA (OD450), plate coated with BAFF 2 µg/ml, human BCMA titrated up to 10 µg/mL; EC50 table in the figure. Particulars: remark: other sources report otherwise.
The target of test [3] is human-BAFF-Fc (human), Q9Y275. As to the kind of experiment: ELISA (OD450), plate coated with BAFF 4 µg/ml, human BCMA titrated up to 10 µg/mL; EC50 table in the figure. The settings on record: remark: other sources report otherwise.
Test [4] deals with human-BAFF-Fc (human), Q9Y275. The test can be described thus: ELISA (OD450), plate coated with BAFF 8 µg/ml, human BCMA titrated up to 10 µg/mL; EC50 table in the figure. The settings on record: remark: other sources report otherwise.
Test [5] addresses cyno-BCMA-Fc (cyno (monkey)). As to the kind of experiment: ELISA (OD450), GSK2857916 titrated up to 10 µg/mL on Monkey BCMA-Fc; EC50 table in the figure.
Test [6] has as its target cyno-BCMA-His (cyno (monkey)). As to the kind of experiment: ELISA (OD450), GSK2857916 titrated up to 10 µg/mL on Monkey BCMA-His; EC50 table in the figure.

human-BAFF-Fc (human), Q9Y275, sequence (Q9Y275 134-285 limits assumed): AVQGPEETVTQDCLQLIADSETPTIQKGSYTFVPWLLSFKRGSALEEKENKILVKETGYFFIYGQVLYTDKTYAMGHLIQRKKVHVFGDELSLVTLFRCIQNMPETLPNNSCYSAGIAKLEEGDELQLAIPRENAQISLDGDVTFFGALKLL

B1: human BCMA (recombinant antigen, tag not stated for the assay), Q02223 1-54 (receptor, UniProt Q02223 1-54, looked up)
chain: MLQMAGQCSQNEYFDSLLHACIPCQLRCSSNTPPLTCQRYCNASVTNSVKGTNA
Turning to B1, the EC50 is 0.586 µg/mL in test [1], 0.553 µg/mL in test [2], 0.559 µg/mL in test [3] and 0.697 µg/mL in test [4].

B2: GSK2857916 (positive control antibody, not coupled to the toxin molecule) (antibody, V domains shown)
VH: QVQLVQSGAEVKKPGSSVKVSCKASGGTFSNYWMHWVRQAPGQGLEWMGATYRGHSDTYYNQKFKGRVTITADKSTSTAYMELSSLRSEDTAVYYCARGAIYDGYDVLDNWGQGTLVTVSS
VL: DIQMTQSPSSLSASVGDRVTITCSASQDISNYLNWYQQKPGKAPKLLIYYTSNLHSGVPSRFSGSGSGTDFTLTISSLQPEDFATYYCQQYRKLPWTFGQGTKLEIK
B2: the concentration for a half-maximal effect (EC50) in test [5] was 0.336 µg/mL; in test [6], 0.463 µg/mL.

Source of the values: patent publication US20240052048A1.
